Values belong to the binder of their own block, whether it stands above or below them.
Assays:
[1] = molecular target: T1, human FcγRIIA (NM_021642) (human, UniProt P12318 36-317); test: flow cytometry on transiently transfected Expi293F cells
T1 construct: Transiently expressed on Expi293F cells
T1 sequence: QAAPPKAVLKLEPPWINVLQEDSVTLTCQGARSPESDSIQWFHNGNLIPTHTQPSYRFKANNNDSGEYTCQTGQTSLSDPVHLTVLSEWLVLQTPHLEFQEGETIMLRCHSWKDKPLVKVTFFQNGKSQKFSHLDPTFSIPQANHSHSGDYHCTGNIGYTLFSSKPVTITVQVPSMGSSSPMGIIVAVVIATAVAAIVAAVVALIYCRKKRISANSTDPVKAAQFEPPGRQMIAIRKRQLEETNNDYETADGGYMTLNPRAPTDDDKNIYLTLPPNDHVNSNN
Experimental: (§1) Plasmids expressing cDNAs encoding human FcγRI (NM_000566) (SEQ ID NO: 59), FcγRIIA (NM_021642) (SEQ ID NO: 60), FcγRIIB (NM_004001) (SEQ ID NO: 61), and FcγRIIIA (NM_000569) (SEQ ID NO: 62) (Origene) were transiently transfected into Expi293F cells by ExpiFectamine293 transfection kit (Life Technologies). Flow cytometry assays were performed 48 h after transfection. […] Raji cells (ATCC: CCL-86) were also employed to test the binding of anti-OX40 antibody to FcγRIIB receptor.
(§2) 2×10⁵ cells per well were seeded in 96-well plate and blocked in BSA Stain Buffer (BD Biosciences, San Jose, USA) for 30 min at 4° C. Cells were incubated with test antibody on ice for 1.5 h at 4° C. After being washed twice with BSA stain buffer, the cells were incubated with R-PE labeled anti-human or anti-mouse IgG secondary antibody (Jackson Immunoresearch Laboratories) for 45 min at 4° C. The cells were washed twice in stain buffer and then resuspended in 150 μL of Stain Buffer containing 1:200 diluted DRAQ7 live/dead stain (Cell Signaling Technology, Danvers, USA). PE and DRAQ7 signals of the stained cells were detected by Miltenyi MACSQuant flow cytometer (Miltenyi Biotec, Auburn, USA) using B2 and B4 channel respectively. Live cells were gated on DRAQ7 exclusion and the geometric mean fluorescence signals were determined for at least 10,000 live events collected. FlowJo software (Tree Star) was used for analysis. Data was plotted as the logarithm of antibody concentration versus mean fluorescence signals. Nonlinear regression analysis was performed by GraphPad Prism 6 (GraphPad Software, Inc.) and EC₅₀ values were calculated.
(§3) The binding of engineered anti-OX40 SF2 antibodies to various FcγR receptors expressed on transiently-transfected Expi293F cells were assessed by flow cytometry as described in Example 3.

[2] = molecular target: T2, human FcγRIIIA (NM_000569) (human, UniProt P08637 17-254); test: as above
T2 construct: Transiently expressed on Expi293F cells
T2 sequence (P08637 17-254 limits assumed): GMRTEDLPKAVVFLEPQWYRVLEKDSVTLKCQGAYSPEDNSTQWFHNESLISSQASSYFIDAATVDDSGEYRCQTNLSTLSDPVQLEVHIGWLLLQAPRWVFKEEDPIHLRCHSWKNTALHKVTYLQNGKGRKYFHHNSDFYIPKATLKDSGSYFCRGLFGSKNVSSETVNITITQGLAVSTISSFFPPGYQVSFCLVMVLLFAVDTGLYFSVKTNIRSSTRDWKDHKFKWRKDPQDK
Experimental: as §1, §2, §3

human FcγRI (NM_000566) = molecular target: T3, human FcγRI (NM_000566) (human, UniProt P12314 16-374); test: as above
T3 construct: Transiently expressed on Expi293F cells
T3 sequence (P12314 16-374 limits assumed): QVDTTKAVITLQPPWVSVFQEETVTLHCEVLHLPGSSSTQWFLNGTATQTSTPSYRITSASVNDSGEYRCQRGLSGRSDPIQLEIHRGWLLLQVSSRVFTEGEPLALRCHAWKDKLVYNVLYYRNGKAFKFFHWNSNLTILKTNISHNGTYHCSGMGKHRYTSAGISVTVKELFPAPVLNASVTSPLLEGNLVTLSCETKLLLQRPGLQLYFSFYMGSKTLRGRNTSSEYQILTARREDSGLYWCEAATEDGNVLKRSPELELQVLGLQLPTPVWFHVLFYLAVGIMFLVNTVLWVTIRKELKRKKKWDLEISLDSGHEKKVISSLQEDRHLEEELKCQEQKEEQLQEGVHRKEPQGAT
Experimental: as §1, §2, §3

[3] = molecular target: T4, human FcγRIIB (NM_004001) (human, UniProt P31994 43-310); test: as above
T4 construct: Transiently expressed on Expi293F cells
T4 sequence: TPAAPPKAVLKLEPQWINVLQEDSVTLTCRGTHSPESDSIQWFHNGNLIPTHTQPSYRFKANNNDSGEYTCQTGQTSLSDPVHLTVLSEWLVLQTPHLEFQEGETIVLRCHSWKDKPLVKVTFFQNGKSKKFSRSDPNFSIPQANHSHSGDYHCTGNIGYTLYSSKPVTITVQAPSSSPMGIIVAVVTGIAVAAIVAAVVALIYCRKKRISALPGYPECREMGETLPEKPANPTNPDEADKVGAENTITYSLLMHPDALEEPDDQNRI
Experimental: as §1, §2, §3

[4] = molecular target: T5, recombinant human FcRn extracellular domain with a poly-histidine affinity tag (FcRn-His6) (human, UniProt P55899 24-297); test: competitive binding assay on plate-captured FcRn-His6 at pH 6.0; competitor: biotinylated human IgG1 indicator antibody at 1 µg/mL
T5 construct: extracellular domain
T5 sequence (P55899 24-297, form in doubt): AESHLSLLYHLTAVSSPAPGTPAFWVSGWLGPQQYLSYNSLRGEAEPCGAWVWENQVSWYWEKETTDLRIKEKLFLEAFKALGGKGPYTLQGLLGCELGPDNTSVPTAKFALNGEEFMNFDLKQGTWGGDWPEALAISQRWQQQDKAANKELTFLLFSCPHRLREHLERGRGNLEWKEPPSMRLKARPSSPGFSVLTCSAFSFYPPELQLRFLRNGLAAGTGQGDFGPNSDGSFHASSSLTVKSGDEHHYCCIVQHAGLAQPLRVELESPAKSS
Experimental: A competitive binding assay was used to assess relative affinities of different antibody samples to a recombinant human FcRn extracellular domain with a poly-histidine affinity tag (FcRn-His6). Ninety-six-well copper-coated plates (Thermo Scientific) were used to capture FcRn-His6 at 5 μg/mL in PBS, after which plates were washed with 0.15M NaCl, 0.02% Tween 20, and then incubated with blocking reagent (0.05M MES [2-(N-morpholino) ethanesulfonic acid], 0.025% bovine serum albumin (BSA), 0.001% Tween-20, pH 6.0, 10% chemiBLOCKER (Millipore)). […] Plates were incubated at room temperature for 1 hour, washed three times as above, and then incubated with a 1:10,000 dilution of streptavidin-horseradish peroxidase (HRP) (Jackson ImmunoResearch Laboratories) at room temperature for 30 minutes to bind biotinylated antibody. Plates were washed five times as above, and bound streptavidin-HRP detected by adding TMB (3,3′,5,5′-tetramethylbenzidine) peroxidase substrate with stable stop (Fitzgerald Industries International) and incubating for 4 minutes. Color development was stopped by addition of 0.5 M HCl. Optical densities were determined with a SpectraMax Plus384 plate reader (Molecular Devices) at 450 nm wavelength.

EC50 [1]: 4.56 µg/mL
EC50 [2]: 0.744 µg/mL
EC50 (human FcγRI (NM_000566)): 0.326 µg/mL
EC50 [3]: > 10 µg/mL
B1: OX40SF2IgG1 (antibody)
chain 1: not shown
chain 2: DIQMTQSPSSLSASVGDRVTITCKASQDVGAAVAWYQQKPGKAPKLLIYWASTRHTGVPSRFSGSGSGTDFTLTISSLQPEDFATYYCQQYINYPLTFGGGTKVEIKRTVAAPSVFIFPPSDEQLKSGTASVVCLLNNFYPREAKVQWKVDNALQSGNSQESVTEQDSKDSTYSLSSTLTLSKADYEKHKVYACEVTHQGLSSPVTKSFNRGEC

IC50 [4]: 1.1 µg/mL
EC50 [1]: 4.13 µg/mL
EC50 [2]: 1.14 µg/mL
EC50 (human FcγRI (NM_000566)): 0.24 µg/mL
EC50 [3]: > 10 µg/mL
B2: OX40SF2IgG1T437R (antibody)
heavy: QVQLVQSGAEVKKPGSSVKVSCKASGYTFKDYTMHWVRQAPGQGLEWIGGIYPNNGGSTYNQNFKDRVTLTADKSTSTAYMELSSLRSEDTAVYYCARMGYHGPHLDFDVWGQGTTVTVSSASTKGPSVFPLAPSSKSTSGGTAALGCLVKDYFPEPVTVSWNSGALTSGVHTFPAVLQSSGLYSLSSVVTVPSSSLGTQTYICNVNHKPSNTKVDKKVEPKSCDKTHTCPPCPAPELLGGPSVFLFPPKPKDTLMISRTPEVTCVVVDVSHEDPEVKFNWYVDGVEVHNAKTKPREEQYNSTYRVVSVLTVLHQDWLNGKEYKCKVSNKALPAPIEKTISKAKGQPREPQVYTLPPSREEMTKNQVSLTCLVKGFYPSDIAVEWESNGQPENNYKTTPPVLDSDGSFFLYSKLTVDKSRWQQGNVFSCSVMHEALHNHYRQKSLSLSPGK
VL: DIQMTQSPSSLSASVGDRVTITCKASQDVGAAVAWYQQKPGKAPKLLIYWASTRHTGVPSRFSGSGSGTDFTLTISSLQPEDFATYYCQQYINYPLTFGGGTKVEIK
notes: also called SF2 antibody with T437R

IC50 [4]: 1.6 µg/mL
EC50 [1]: 3.39 µg/mL
EC50 [2]: 1.56 µg/mL
EC50 (human FcγRI (NM_000566)): 0.248 µg/mL
EC50 [3]: > 10 µg/mL
B3: OX40SF2IgG1T437R/K248E (antibody)
heavy: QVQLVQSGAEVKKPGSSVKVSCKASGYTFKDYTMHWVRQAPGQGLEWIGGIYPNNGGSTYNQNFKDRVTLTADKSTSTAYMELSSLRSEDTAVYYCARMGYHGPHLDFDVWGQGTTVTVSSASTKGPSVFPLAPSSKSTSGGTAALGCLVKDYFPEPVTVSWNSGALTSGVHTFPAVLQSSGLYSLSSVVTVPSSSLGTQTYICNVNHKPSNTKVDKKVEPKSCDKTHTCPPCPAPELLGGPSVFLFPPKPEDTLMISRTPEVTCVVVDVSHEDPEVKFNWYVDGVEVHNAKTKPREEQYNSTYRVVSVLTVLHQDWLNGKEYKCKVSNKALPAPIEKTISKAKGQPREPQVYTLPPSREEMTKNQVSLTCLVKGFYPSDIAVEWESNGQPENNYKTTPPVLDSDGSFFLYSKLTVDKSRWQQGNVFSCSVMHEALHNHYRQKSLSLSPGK
VL: B2 VL
